Test results: article PMC10139993

B1: Fused in sarcoma (FUS) wildtype with N-terminal GFP tag [not stated] / itself (parent)
chain: MASNDYTQQATQSYGAYPTQPGQGYSQQSSQPYGQQSYSGYSQSTDTSGYGQSSYSSYGQSQNTGYGTQSTPQGYGSTGGYGSSQSSQSSYGQQSSYPGYGQQPAPSSTSGSYGSSSQSSSYGQPQSGSYSQQPSYGGQQQSYGQQQSYNPPQGYGQQNQYNSSSGGGGGGGGGGNYGQDQSSMSSGGGSGGGYGNQDQSGGGGSGGYGQQDRGGRGRGGSGGGGGGGGGGYNRSSGGYEPRGRGGGRGGRGGMGGSDRGGFNKFGGPRDQGSRHDSEQDNSDNNTIFVQGLGENVTIESVADYFKQIGIIKTNKKTGQPMINLYTDRETGKLKGEATVSFDDPPSAKAAIDWFDGKEFSGNPIKVSFATRRADFNRGGGNGRGGRGRGGPMGRGGYGGGGSGGGGRGGFPSGGGGGGGQQRAGDWKCPNPTCENMNFSWRNECNQCKAPKPDGPGGGPGGSHMGGNYGDDRRGGRGGYDRGGYRGRGGDRGGFRGGRGGGDRGGFGPGKMDSRGEHRQDRRERPY

Variants of: B1
Test: SiMPull photobleaching step analysis
Details: with itself, read off a plot

Row | photobleaching steps (0.4M sorbitol 4 hr) [steps] | photobleaching steps (no stress) [steps] | photobleaching steps (without stress) [steps] | Variant
1 | 2.1 | 2.1 | 2.1 | chain 1 R244C
2 | 2.2 | 2.2 | 2.2 | chain 1 R216C

The remaining lines, values behind:

Row | Variant | photobleaching steps (0.4M sorbitol 4 hr) [steps] | photobleaching steps (no stress) [steps] | photobleaching steps (without stress) [steps]
3 | chain 1 G156E | 2 | 1.6 | 1.6
4 | chain 1 G187S | 2.5 |  | 
